Experimental data published in the RNAGym collection of RNA variant scans (doi:10.1073/pnas.2313332121).
Fewer inactive variants are shown than the library holds.

B1: TPR 5TU (parent)
chain: GGAUCUUCUCGAUCUAACAAAAAAGACAAAUCUGCCACAAAGCUUGAGAGCAUCUUCGGAUGCAGAGGCGGCAGCCUUCGGUGGCGCGAUAGCGCCAACGUUCUCAACUAUGACACGCAAAACGCGUGCUCCGUUGAAUGGAGUUUAUCAUG

Variants of: B1
Test: polymerase ribozyme fitness, log enrichment relative to wild type (log ratio); higher = more active; in vitro selection for triplet polymerase activity
Procedure, shortened: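 Fitness measures genotype enrichment against wild-type enrichment on a logarithmic scale, with inverse-variance-weighted averaging of replicates. The logarithm is base 2, and genotypes were kept only with ≥10 input reads and ≥1 read per output in Illumina sequencing. The sequenced libraries came from one triplicate in vitro selection round, including frozen incubation at −7 °C, of PCR-built, transcribed mutant libraries of each subunit of a heterodimeric triplet polymerase ribozyme.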

| Variant | polymerase ribozyme fitness (log ratio) |
| --- | --- |
| A26G G83A G88A G94U C149G | -4.19 |
| A24U G88C C95G C123G | ≤ -4.2 |
| A26U C36A G58C A89G G94U A138G | ≤ -4.2 |
| A24G G124U | -4.06 |
| A26G A66U C85A C95A G124C C131A | ≤ -4.2 |
| A24G C51G G59C G92C C99U C125U | ≤ -4.2 |
| A26C A41G A47C C69G G83A C93U G124U | ≤ -4.2 |
| A23U C72U G83A U109A U151G | ≤ -4.2 |
| A23U A40U A73G | ≤ -4.2 |
| A23G C38U U61A C69A C76U C96G C116U G117U | ≤ -4.2 |
| A24G A52C G68A U151G | ≤ -4.2 |
| A24U A49U C51U G70A C85U G112U C114A A122U U146C | ≤ -4.2 |
| A23C U44G A47U A91U A122U | ≤ -4.2 |
| G25C A41C A47C G83U A89U A121C C125G A142C C149G A150U G152A | ≤ -4.2 |
| A26C C105U | -2.13 |
| A26U A89C C95U U104A A107G | ≤ -4.2 |
| A24C G46A C116G | -4.14 |
| A26U A73U G74U C96A | ≤ -4.2 |
| A26U A28U G81C U90A | ≤ -4.2 |
| A23U G42C G88C C105G C116G | ≤ -4.2 |
| A23U U44A U55A A122U | ≤ -4.2 |

| Variant | polymerase ribozyme fitness (log ratio) |
| --- | --- |
| A23C G34U C43U A60G C132U | -4.02 |
| A24U A49C C54U C75G C85A A122U U144C A147C | ≤ -4.2 |
| A24C G42A A52G U55A C76U C123G G126A | ≤ -4.2 |
| A24U C27U C36U G58C G83A G112U A121G G124C | ≤ -4.2 |
| G25C G94A | -3.16 |
| A23G A26U G94C A110C | ≤ -4.2 |
| A24U G42C G50U C85G G136A G141A | ≤ -4.2 |
| G25U C38U | -1.98 |
| A24U C99U | -1.46 |
| G25U C76G G92A A119U U145A C149A U151G | ≤ -4.2 |
| A26G C35G C57A G81C C87G | ≤ -4.2 |
| A26U C54A G65A A98G | -4.2 |
| A26C C36G C116A U148G | ≤ -4.2 |
| A24U G50U G59A | 0.438 |
| A24U A40C U55A A60G C75G C96G U104G | ≤ -4.2 |
| A23U U56A A73U G86A C93G C131G U139C | ≤ -4.2 |
| A24U A37G | -2.41 |
| G25C C75U A91G C99A G124U U134A | ≤ -4.2 |
| G25U A52G U56A A60G G133C | -4.06 |
| A24U A41U G62C G70C C85G G152A | ≤ -4.2 |
| A24C G34A C96G G117C U135G U139A U145A | ≤ -4.2 |

| Variant | polymerase ribozyme fitness (log ratio) |
| --- | --- |
| A26G G59U | -3.78 |
| A24C G50C U56A C93U G94C U148C | ≤ -4.2 |
| A24G G141C G143C | ≤ -4.2 |
| G25A U56A | -1.67 |
| A26C U61A A64U C85A A110C | ≤ -4.2 |
| A24G G92U A122G | ≤ -4.2 |
| A26C C85A G94C | -1.83 |
| A23G A52U | -3.51 |
| A24U A28C A52G G71A C96G A137C | ≤ -4.2 |
| G25A C54A G84U C114U A115G A121C U145G A150U | ≤ -4.2 |
| A23U U53G | ≤ -4.2 |
| A24G C32A C38A U45A C57U A106U C118U | ≤ -4.2 |
| A26C A60U A107C A115G | ≤ -4.2 |
| G25U C43A G58C A60C A91G | ≤ -4.2 |
| A26C A66C G81C G83C | -4.1 |
| A24U G86C | -2.81 |
| A24C G58A | ≤ -4.2 |
| A23U C99U | -3.84 |
| A23G U101A | -3.18 |
| A26U A49C | ≤ -4.2 |
| A26C G94A C131U | -1.51 |

| Variant | polymerase ribozyme fitness (log ratio) |
| --- | --- |
| A23G A73U G81C | -4.17 |
| A26U A40G A41C A49G C51U A52C U90A G92A C95U A97C C118A A137G U151C | ≤ -4.2 |
| G25A C35U G84A C87A A91U C118U A142G | ≤ -4.2 |
| A23U C57A G92C C149G | ≤ -4.2 |
| A26U C85A | -2.68 |
| A23G C32G C57U G74A C93U U101G A137U | ≤ -4.2 |
| A26U C125A | -1.8 |
| G25C U78G C87U G117U C118U U148A | ≤ -4.2 |
| G25C C105U U144C | -2.67 |
| G25U G84A | -3.07 |
| A26G C27G C87U U148A | ≤ -4.2 |
| G25C A52C G84U | ≤ -4.2 |
| A23G G86U C93U A150U | -3.88 |
| A23U A29G U101C | ≤ -4.2 |
| G25C U61A C75G A91G A97U | -4.05 |
| A23G G86A G100A | ≤ -4.2 |
| A23U G42C G83A | ≤ -4.2 |
| A24C U53A G81C C95U G141A | ≤ -4.2 |
| A24C A37C U53A A66U C95A C114G U135C U144A | ≤ -4.2 |
| G25C A52C U53A C87U G92C A98G U104G C108G U135G | ≤ -4.2 |
